# Substitutions are numbered along the chain they refer to.
# B1: GST-GK (p.Ile130Thr): recombinant GST-glucokinase fusion protein with MODY2 mutation p.Ile130Thr (protein, UniProt P35557 1-465, looked up, variant I130T)
# Hexokinase-4: MLDDRARMEAAKKEKVEQILAEFQLQEEDLKKVMRRMQKEMDRGLRLETHEEASVKMLPTYVRSTPEGSEVGDFLSLDLGGTNFRVMLVKVGEGEEGQWSVKTKHQMYSIPEDAMTGTAEMLFDYISECTSDFLDKHQMKHKKLPLGFTFSFPVRHEDIDKGILLNWTKGFKASGAEGNNVVGLLRDAIKRRGDFEMDVVAMVNDTVATMISCYYEDHQCEVGMIVGTGCNACYMEEMQNVELVEGDEGRMCVNTEWGAFGDSGELDEFLLEYDRLVDESSANPGQQLYEKLIGGKYMGELVRLVLLRLVDENLLFHGEASEQLRTRGAFETRFVSQVESDTGDRKQIYNILSTLGLRPSTTDCDIVRRACESVSTRAAHMCSAGLAGVINRMRESRSEDVMRITVGVDGSVYKLHPSFKERFHASVRRLTPSCEITFIESEEGSGRGAALVSAVACKKACMLGQ
# modifications: N-terminal GST fusion
# B2: GST-GK (p.Asp205His): recombinant GST-glucokinase fusion protein with MODY2 mutation p.Asp205His (protein, UniProt P35557 1-465, looked up, variant D205H)
# Hexokinase-4: B1 Hexokinase-4 with T130I, D205H
# modifications: N-terminal GST fusion
# B3: GST-GK (p.Gly223Ser): recombinant GST-glucokinase fusion protein with MODY2 mutation p.Gly223Ser (protein, UniProt P35557 1-465, looked up, variant G223S)
# Hexokinase-4: B1 Hexokinase-4 with T130I, G223S
# modifications: N-terminal GST fusion
# Tested on: human beta-cell glucokinase
# Assay: Kinetic analysis of recombinant GST-GK fusion proteins (NADP+-coupled assay with glucose-6-phosphate dehydrogenase)
# Type: biochemical
# Settings: for S0.5 for glucose: means ± SEM; for overall activity, % of the wild-type protein: reflected in the relative activity index; for nH (Hill coefficient): unit less
# Procedure: The expression and purification of fusion proteins from E. coli was performed as described previously [22]. Fusion proteins were stored at a concentration of about 1 mg/ml at −80°C in 30% glycerol, 50 mM glucose, 10 mM glutathione, 5 mM DTT, 200 mM KCl and 50 mM Tris/HCl pH = 8.0. Protein concentrations were determined using the Bio-Rad Protein Assay (Bio-Rad Laboratories, GmbH), with bovine serum albumin as standard.
# Glucokinase activity was measured spectrophotometrically on a spectrophotometer Uviconxl (Secoman), using an NADP^+-coupled assay with glucose-6-phosphate dehydrogenase, as described previously [22]. The final reaction mixture contained 100 mM Tris pH 7.4, 150 mM KCl, 1 mM MgCl2, 1.4 mM ß-mercaptoethanol, 0.1% BSA, 5 mM ATP-MgCl2, 1 mM NADP^+, and 1 U/ml glucose-6-phosphate dehydrogenase. Determination of kinetic parameters and thermal stability tests were performed as in [20].
# One unit of GK is defined as the amount of enzyme that phosphorylates 1 µmol of glucose per min at 30°C.
Molecule,S0.5 for glucose,"overall activity, % of the wild-type protein",nH (Hill coefficient)
B1,8.59 ± 0.45 mM,lower than 20%,1.01±0.02
B2,No activity at all,–,No activity at all
B3,44.0 ± 3.81 mM,< 10%,1.13±0.01
